Starred links: 1 amine or outer side, 2 acyl side, 3 side chain; linkers in the order of their positions; H or OH if unused. Non-standard residues stand in square brackets, D forms with d. *: point of attachment. 4‑nitrohippuryl = O=C(NCC(=O)*)c1ccc([N+](=O)[O-])cc1; Benzoyl(4-(pyrrol-1-yl)) = O=C(c1ccc(-n2cccc2)cc1)*; bis(2,3-dihydroxybenzyl) = not defined here; Cysteamide = C(CS[*:3])N[*:1]; Dap = NC[C@H](N)C(=O)O

As a reminder, the Ki is a measure of affinity in units of concentration, obtained from inhibition or displacement. A word on the Kd: it is a measure of binding affinity in units of concentration.

Test [1] concerns the target T1, protein kinase C γ (UniProt P05129 1-697, limits assumed). Kind of test: cell-based or functional assay.
For test [2], the target named is T2, protein kinase C ε (UniProt Q02156 1-737, limits assumed).
T2 sequence (looked up): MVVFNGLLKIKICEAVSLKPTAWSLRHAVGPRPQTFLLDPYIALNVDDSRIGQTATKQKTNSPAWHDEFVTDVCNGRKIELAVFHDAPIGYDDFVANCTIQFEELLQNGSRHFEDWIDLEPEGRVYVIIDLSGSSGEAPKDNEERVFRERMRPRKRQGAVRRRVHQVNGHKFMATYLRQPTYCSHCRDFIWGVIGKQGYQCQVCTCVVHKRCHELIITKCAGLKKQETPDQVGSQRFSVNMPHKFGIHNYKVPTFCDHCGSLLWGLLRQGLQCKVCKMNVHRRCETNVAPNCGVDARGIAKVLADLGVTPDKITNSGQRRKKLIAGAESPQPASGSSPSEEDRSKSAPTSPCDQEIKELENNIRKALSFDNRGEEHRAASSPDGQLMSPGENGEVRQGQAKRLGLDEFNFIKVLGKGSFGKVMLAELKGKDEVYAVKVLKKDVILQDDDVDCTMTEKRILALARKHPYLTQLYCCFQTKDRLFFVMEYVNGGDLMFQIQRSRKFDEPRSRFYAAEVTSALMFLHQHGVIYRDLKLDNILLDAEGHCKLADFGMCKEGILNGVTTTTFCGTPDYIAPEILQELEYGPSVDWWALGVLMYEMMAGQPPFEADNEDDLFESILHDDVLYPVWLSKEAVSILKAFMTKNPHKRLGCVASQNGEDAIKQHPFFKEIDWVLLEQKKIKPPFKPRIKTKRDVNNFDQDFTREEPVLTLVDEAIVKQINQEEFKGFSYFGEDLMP
The test can be described thus: cell-based or functional assay.

Test [3] concerns the target T3, protein kinase C η (UniProt P24723 1-683, limits assumed). The test can be described thus: cell-based or functional assay.
Test [4] concerns the target T4, protein kinase C θ (UniProt Q04759 1-706, limits assumed). The test can be described thus: cell-based or functional assay.
In test [5] the target is T5, protein kinase C ζ (UniProt Q05513 1-592, limits assumed).
T5 sequence (looked up): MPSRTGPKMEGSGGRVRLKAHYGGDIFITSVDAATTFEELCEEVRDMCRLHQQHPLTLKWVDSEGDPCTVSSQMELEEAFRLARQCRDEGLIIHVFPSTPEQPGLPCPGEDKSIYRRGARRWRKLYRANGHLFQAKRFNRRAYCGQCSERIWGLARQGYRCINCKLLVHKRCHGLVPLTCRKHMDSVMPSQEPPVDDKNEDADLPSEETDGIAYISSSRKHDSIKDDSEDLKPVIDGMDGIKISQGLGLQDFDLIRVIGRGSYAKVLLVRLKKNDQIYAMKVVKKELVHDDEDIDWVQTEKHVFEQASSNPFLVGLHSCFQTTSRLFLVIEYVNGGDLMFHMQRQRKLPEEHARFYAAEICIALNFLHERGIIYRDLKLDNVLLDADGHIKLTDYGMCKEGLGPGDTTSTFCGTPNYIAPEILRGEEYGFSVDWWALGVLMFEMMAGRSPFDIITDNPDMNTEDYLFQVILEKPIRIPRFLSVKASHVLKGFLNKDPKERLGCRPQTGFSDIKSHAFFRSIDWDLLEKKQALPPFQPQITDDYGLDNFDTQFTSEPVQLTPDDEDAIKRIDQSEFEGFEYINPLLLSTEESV
Kind of test: cell-based or functional assay.

In test [6] the target is T6, protein kinase Cα (UniProt P17252 1-672, limits assumed). The test can be described thus: cell-based or functional assay.
Test [7] deals with T7, protein kinase C βI (UniProt P05771-1 1-671, limits assumed). The test can be described thus: cell-based or functional assay.
Test [8] addresses T1, protein kinase C γ. Kind of test: cell-based or functional assay. The source holds these as a separate data set.
Test [9] deals with T2, protein kinase C ε. The test can be described thus: cell-based or functional assay. This is another data set of the same source.
The target in test [10] is T3, protein kinase C η. Kind of test: cell-based or functional assay. This is another data set of the same source.
Test [11] has as its target T4, protein kinase C θ. The test can be described thus: cell-based or functional assay. This is another data set of the same source.
Test [12] addresses T8, protein kinase C τ (atypical; ι in the tables) (UniProt P41743 1-596).
T8 sequence (looked up): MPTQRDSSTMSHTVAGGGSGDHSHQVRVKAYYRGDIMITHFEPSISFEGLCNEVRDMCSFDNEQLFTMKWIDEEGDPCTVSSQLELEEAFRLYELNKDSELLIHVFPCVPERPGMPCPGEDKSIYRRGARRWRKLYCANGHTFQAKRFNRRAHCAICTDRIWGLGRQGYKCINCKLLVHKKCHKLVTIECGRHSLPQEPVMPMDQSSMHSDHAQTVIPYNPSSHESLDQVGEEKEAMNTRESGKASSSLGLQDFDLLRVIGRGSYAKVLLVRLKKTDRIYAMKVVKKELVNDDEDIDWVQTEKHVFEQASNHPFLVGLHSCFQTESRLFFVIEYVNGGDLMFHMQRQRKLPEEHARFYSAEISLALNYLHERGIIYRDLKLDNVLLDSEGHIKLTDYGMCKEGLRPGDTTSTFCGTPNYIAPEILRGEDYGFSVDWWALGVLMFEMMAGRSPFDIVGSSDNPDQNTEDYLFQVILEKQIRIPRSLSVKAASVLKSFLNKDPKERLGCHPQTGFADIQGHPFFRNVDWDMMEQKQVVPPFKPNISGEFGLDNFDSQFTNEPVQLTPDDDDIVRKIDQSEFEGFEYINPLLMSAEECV
The test can be described thus: cell-based or functional assay.

In test [13] the target is T5, protein kinase C ζ. Kind of test: cell-based or functional assay. This is another data set of the same source.
Test [14] deals with T6, protein kinase Cα. Kind of test: cell-based or functional assay. The source holds these as a separate data set.
Test [15] deals with T7, protein kinase C βI. The test can be described thus: cell-based or functional assay. The source holds these as a separate data set.
The target of test [16] is T5, protein kinase C ζ. Kind of test: PKC ζ 33P kinase assay, double reciprocal plots at variable peptide substrate; competitive pattern. The procedure: K_i determinations. […] ATP for radioactive detection. 10 µL enzyme diluted buffer containing 20 mM Tris (pH 7.5), PKC (10 ng/well), 0.5 mM DTT, BSA (375 µg/mL) and 0.5 mM EDTA.4Na.2H_2O was added to initiate the reaction. Total reaction volume in each well was 50 µL. All the wells were tested in the same plate and each concentration was tested in triplicate. Subsequent assay workup and scintillation counting were performed as described above. Double reciprocal plots were obtained at different concentrations of substrates. K_i values were calculated using Enzyme Kinetics, SigmaPlot (SPSS Inc.).

Test [17] concerns the target T6, protein kinase Cα. Kind of test: equilibrium dialysis with fluorescence read-out, 250 nM PKCα and 500 nM peptide 7, 4° C., with AMP-PNP. Here is the method:
(§1) Determination of K_D Values. […] All samples were prepared in a buffer containing 50 mM HEPES (pH 7.5), 0.8 mM CaCl_2.2H_2O, 13.6 mM MgCl_2.6H_2O, 0.56 mM EGTA.Na, phosphatidylserine (90 µg/mL), diacylglycerol (16 µg/mL), 4 mM Tris (pH 7.5), 0.2 mM DTT, BSA (146 µg/mL), 0.2 mM EDTA.4Na.2H_2O and AMP-PNP (a nonhydrolyzable ATP analogue) or without AMP-PNP at pH 7.5. Slide-A-Lyzer dialysis slide cassettes (Pierce, 10K MWCO, 0.1-0.5 mL capacity) were employed and contained 250 nM PKCα and 500 nM fluorescein-labeled peptide 7. The slide cassettes contained a final volume of 180 µL. The cassettes were placed in beaker containing a volume of buffer solution that was at least 500-fold greater than that of the sample volume in the dialysis slide cassette. Equilibrium dialysis experiments were performed over a period of 16 hr and maintained at 4° C. The fluorescence intensity of the solutions in the slide cassette (F_i) and in the beaker (F_o) was measured. The excitation wavelength for the fluorescein-labeled peptide 7 was 499 nm and the emission monitored at 519 nm. The K_D values were calculated from Equation 1.
In general terms: Equilibrium dialysis compares concentrations on both sides of a semipermeable membrane.

Test [18] addresses T6, protein kinase Cα. The test can be described thus: equilibrium dialysis with fluorescence read-out, 250 nM PKCα and 500 nM peptide 7, 4° C., without AMP-PNP. The procedure:
as §1

T3 sequence (P24723 whole entry): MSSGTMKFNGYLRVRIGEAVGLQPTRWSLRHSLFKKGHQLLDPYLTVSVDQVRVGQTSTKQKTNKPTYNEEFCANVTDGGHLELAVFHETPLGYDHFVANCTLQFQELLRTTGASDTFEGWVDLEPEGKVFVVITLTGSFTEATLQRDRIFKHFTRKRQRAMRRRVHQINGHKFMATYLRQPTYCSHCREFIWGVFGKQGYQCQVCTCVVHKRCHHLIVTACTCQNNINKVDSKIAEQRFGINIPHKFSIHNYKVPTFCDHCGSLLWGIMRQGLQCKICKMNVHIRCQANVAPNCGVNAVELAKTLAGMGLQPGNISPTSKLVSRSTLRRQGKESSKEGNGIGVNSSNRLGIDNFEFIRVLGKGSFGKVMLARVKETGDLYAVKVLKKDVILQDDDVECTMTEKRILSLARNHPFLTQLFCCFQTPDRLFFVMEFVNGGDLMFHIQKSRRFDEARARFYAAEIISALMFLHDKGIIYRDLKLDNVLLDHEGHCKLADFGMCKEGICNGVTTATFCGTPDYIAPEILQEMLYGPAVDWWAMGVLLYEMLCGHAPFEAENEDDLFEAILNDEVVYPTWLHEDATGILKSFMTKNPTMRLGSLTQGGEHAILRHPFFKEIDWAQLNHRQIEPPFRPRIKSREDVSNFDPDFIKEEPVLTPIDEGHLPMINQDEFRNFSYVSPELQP
T7 sequence (P05771 whole entry): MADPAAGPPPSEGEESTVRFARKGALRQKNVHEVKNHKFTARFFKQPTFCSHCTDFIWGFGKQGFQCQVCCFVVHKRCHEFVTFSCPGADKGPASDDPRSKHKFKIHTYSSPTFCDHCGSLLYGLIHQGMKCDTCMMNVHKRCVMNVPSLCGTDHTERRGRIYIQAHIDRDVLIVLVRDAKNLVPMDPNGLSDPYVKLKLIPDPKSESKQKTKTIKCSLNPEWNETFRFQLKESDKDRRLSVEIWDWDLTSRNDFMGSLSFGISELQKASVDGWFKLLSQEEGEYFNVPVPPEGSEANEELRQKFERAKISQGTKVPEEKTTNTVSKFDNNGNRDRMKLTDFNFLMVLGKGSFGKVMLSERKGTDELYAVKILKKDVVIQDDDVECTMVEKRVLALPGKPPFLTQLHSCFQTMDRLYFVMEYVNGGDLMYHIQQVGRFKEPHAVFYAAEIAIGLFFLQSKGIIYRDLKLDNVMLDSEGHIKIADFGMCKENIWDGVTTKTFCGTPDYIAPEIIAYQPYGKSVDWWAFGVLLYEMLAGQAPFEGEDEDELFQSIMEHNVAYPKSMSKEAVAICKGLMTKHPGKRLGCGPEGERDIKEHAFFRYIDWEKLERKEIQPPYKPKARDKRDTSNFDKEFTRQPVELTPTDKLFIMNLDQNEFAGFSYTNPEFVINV
T4 sequence (Q04759 whole entry): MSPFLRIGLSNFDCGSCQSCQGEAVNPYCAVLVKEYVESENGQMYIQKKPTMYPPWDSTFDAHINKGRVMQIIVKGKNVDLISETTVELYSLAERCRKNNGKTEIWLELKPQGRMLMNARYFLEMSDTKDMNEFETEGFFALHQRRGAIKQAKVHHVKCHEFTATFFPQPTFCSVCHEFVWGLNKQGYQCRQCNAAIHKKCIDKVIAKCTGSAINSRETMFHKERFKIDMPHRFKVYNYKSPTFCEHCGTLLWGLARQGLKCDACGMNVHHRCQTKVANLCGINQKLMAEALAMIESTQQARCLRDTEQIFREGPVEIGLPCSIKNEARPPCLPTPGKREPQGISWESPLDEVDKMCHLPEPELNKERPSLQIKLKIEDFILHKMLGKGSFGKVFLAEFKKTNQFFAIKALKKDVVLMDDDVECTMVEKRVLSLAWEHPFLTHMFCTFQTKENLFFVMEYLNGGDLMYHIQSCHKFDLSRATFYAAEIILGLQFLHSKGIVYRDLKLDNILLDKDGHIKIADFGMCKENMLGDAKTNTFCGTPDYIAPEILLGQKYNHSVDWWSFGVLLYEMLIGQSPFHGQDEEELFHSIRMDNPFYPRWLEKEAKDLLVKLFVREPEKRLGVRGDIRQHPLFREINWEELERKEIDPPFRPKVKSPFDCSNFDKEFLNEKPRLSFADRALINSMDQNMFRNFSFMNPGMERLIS

B1: Compound G (doubly alkylated analogue of F) (peptide)
peptide: {bis(2,3-dihydroxybenzyl)}-RRQG[Dap](4‑nitrohippuryl)FMYF-Cysteamide
modifications: reading uncertain
As to B1, the “IC50, PKC kinase assay (33P, peptide substrate)” value with protein kinase C γ [1] is 38.2 µM; in the test with protein kinase C ε [2], 34.5 µM; in the test with protein kinase C η [3], 15.3 µM; with protein kinase C θ [4], 16.7 µM; with protein kinase C ζ [5], 750 pM; with protein kinase Cα [6], 47.5 µM. Also, the “IC50, PKC kinase assay (33P, peptide substrate)” value in the test with protein kinase C βI [7] is 5.5 µM. The “Fold selectivity (IC50), PKC ζ = 1” value came out at 5090 fold in the test with protein kinase C γ [8]; 4600 fold with protein kinase C ε [9]; 2040 fold with protein kinase C η [10]; 2230 fold with protein kinase C θ [11]; 1490 fold in [12]; 1 fold with protein kinase C ζ [13]. In addition, the “Fold selectivity (IC50), PKC ζ = 1” value with protein kinase Cα [14] was 6330 fold; in the test with protein kinase C βI [15], 730 fold. In the test with protein kinase C ζ [13], the “IC50 or Ki of the most potently inhibited isoform” value worked out at 7.5 nM. In the test with protein kinase C ζ [16], this molecule returned a Ki of 3.9 nM.

B2: fluorescein-labeled peptide 7 (peptide)
peptide: Ac-ARRGALR[Dap](Benzoyl(4-(pyrrol-1-yl)))A-{NH(CH2)2S-CH2CONH‑fluorescein‑5‑yl}
In the case of B2, the dissociation constant (Kd) in the test with protein kinase Cα [17] came to 203 nM; with protein kinase Cα [18] it was 1800 nM.

The record behind these values is patent publication US7902330 (ALBERT EINSTEIN COLLEGE OF MEDICINE OF YESHIVA UNIVERSITY, dated 2011).
